This is an account of results in patent US20120219559A1 (Johns Hopkins, published 2012).

The target of assay [1] is T1, human B7-1 (CD80) expressed on 293T cells (human, UniProt P33681 35-288).
T1 construct: whole, on cells
T1 sequence (looked up): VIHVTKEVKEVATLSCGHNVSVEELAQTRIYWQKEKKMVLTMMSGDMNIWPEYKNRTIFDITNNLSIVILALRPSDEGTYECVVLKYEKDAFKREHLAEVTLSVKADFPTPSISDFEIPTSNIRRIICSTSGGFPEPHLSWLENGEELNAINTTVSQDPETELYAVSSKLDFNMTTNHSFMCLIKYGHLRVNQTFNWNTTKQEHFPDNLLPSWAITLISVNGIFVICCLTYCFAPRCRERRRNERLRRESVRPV
Nature of the assay: CDS well image, 293T cells transfected with the human gene, stained with the human fusion protein.

Assay [2] has as its target T2, human B7-DC expressed on 293T cells (human, UniProt Q9BQ51 20-273).
T2 construct: whole, on cells
T2 sequence (looked up): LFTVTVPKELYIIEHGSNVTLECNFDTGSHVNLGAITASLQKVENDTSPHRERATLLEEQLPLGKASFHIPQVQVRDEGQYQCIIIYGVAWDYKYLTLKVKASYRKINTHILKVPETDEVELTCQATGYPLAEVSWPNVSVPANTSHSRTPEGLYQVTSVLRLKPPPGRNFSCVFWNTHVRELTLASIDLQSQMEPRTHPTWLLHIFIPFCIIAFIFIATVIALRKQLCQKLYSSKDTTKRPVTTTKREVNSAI
Described as above.

Assay [3] concerns the target T3, human B7-2 (CD86, B70) expressed on 293T cells (human, UniProt P42081 24-329).
T3 construct: whole, on cells
T3 sequence (looked up): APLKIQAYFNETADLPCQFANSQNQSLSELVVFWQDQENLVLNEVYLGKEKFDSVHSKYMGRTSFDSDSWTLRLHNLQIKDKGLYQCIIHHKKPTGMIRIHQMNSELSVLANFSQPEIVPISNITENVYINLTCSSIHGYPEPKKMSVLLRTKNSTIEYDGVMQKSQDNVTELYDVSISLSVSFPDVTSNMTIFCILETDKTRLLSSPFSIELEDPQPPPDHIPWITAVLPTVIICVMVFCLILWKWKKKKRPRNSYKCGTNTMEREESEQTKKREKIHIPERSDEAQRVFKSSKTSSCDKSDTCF
Described as above.

The target in assay [4] is T4, human B7-H1 expressed on 293T cells (human, UniProt Q9NZQ7 19-290).
T4 construct: whole, on cells
The assay is described as above.

The target of assay [5] is T5, human B7-H2, full length, expressed on cells (B7-H2+293T cells) (human, UniProt O75144 19-302).
T5 construct: This id also stands for endogenous B7-H2 on monocyte-derived dendritic cells in the functional rows; also called ICOSL; ICOSLG
T5 sequence: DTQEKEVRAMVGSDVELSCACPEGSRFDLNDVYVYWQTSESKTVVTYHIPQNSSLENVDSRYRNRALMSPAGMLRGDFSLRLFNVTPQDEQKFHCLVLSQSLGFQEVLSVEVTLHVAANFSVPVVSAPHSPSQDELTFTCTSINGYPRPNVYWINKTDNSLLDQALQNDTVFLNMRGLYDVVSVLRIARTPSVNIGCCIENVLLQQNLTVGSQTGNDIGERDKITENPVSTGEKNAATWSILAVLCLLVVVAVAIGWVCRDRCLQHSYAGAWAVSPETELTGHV
Nature of the assay: flow cytometry on 293T cells transfected with full length human B7-H2; B7-2Ig alone. (A flow cytometer gives signals particle by particle.)

Assay [6] has as its target T2, human B7-DC expressed on 293T cells. Briefly: flow cytometry on 293T cells transfected with B7-DC.
The target in assay [7] is T6, human B7-H3, 4Ig form, expressed on 293T cells (human, UniProt Q5ZPR3 29-534).
T6 construct: whole, on cells
T6 sequence (looked up): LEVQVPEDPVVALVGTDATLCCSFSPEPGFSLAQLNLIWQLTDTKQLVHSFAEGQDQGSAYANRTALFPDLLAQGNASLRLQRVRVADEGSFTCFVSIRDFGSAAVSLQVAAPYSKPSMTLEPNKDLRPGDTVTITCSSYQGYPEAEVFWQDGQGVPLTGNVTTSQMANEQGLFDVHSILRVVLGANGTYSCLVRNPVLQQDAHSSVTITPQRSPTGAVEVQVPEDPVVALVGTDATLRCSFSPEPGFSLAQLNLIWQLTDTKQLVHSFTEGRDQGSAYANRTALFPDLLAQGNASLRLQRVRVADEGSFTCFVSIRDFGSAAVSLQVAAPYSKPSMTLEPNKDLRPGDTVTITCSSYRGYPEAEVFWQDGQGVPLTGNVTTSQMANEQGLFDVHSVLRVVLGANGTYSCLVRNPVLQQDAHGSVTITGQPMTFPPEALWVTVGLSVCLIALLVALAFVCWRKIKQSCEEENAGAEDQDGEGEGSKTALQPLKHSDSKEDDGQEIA
Nature of the assay: flow cytometry on 293T cells transfected with B7-H3 (4Ig).

Assay [8] addresses T5, human B7-H2, full length, expressed on …. Nature of the assay: flow cytometry on 293T cells transfected with B7-H2.
For assay [9], the target named is T4, human B7-H1 expressed on 293T cells. Briefly: flow cytometry on 293T cells transfected with B7-H1.
Assay [10] addresses T7, human B7-H4 expressed on 293T cells (human, UniProt Q7Z7D3 25-282).
T7 construct: whole, on cells
T7 sequence (looked up): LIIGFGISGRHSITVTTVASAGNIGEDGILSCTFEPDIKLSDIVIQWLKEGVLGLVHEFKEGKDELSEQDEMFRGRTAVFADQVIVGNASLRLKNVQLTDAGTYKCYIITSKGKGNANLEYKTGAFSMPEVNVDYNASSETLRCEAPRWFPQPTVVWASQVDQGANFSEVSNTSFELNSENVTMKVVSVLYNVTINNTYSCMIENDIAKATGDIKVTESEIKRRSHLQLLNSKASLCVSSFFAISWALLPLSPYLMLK
Briefly: flow cytometry on 293T cells transfected with B7-H4.

In assay [11] the target is T8, human B7-H7, full length, expressed on transfected cells (B7-H7+ cells) (human, UniProt Q9UM44 23-414).
T8 construct: also called HHLA2
T8 sequence: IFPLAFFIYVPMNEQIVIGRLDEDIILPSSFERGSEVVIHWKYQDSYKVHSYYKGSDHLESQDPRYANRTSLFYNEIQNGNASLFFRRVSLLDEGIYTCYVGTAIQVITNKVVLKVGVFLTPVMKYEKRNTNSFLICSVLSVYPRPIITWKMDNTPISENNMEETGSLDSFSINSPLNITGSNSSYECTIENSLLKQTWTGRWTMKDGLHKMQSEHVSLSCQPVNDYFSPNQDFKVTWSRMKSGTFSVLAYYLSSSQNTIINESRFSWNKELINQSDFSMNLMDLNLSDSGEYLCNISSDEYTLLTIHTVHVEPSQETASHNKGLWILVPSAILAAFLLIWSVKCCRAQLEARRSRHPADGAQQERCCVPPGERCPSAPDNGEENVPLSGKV
Nature of the assay: flow cytometry on B7-H7 transfected cells (sheet: B7-H7+ 293T; legend: CHO cells); B7-H7CRIg at 10 µg/ml.

Assay [12] concerns the target T9, human B7-H3, 2Ig form, expressed on 293T cells (human, UniProt Q5ZPR3-2 29-316).
T9 construct: whole, on cells
T9 sequence (looked up): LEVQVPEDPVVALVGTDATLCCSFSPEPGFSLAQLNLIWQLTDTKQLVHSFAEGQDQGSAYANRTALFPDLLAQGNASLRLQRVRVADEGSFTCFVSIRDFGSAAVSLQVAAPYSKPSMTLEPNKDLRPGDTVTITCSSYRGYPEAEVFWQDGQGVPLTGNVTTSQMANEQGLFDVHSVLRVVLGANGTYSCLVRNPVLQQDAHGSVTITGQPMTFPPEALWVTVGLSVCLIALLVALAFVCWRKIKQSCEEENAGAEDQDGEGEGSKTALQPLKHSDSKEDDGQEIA
Nature of the assay: flow cytometry on 293T cells transfected with B7-H3 (2Ig).

Assay [13] concerns the target T1, human B7-1 (CD80) expressed on 293T …. Briefly: flow cytometry on 293T cells transfected with B7-1.
The target of assay [14] is T3, human B7-2 (CD86, B70) expressed on …. Briefly: flow cytometry on 293T cells transfected with B7-2.

T4 sequence (Q9NZQ7 19-290): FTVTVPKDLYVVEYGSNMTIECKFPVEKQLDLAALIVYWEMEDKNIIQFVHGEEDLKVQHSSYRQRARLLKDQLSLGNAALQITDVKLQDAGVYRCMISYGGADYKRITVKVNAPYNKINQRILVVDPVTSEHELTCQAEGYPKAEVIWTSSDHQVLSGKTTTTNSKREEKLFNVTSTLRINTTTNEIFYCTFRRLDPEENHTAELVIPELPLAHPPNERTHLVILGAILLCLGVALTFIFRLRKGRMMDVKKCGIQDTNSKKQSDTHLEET

B1: human B7-2Ig fusion protein (Fc fusion, UniProt P42081 26-245, looked up)
chain: LKIQAYFNETADLPCQFANSQNQSLSELVVFWQDQENLVLNEVYLGKEKFDSVHSKYMGRTSFDSDSWTLRLHNLQIKDKGLYQCIIHHKKPTGMIRIHQMNSELSVLANFSQPEIVPISNITENVYINLTCSSIHGYPEPKKMSVLLRTKNSTIEYDGVMQKSQDNVTELYDVSISLSVSFPDVTSNMTIFCILETDKTRLLSSPFSIELEDPQPPPDH
notes: Bought from R&D Systems; Ig (Fc) part not given
For B1, the binding result in [1], in assay [2], in assay [3], in assay [4] and in assay [5] was “no binding” in each case.

B2: human B7-H7CRIg fusion protein (Fc fusion)
chain: LSVQQGPNLLQVRQGSQATLVCQVDQATAWERLRVKWTKDGAILCQPYITNGSLSLGVCGPQGRLSWQAPSHLTLQLDPVSLNHSGAYVCWAAVEIPELEEAEGNITRLFVDPDDPTQNRNRIASFPG
notes: also called B7-H67CRIg; not shown: Ig Fc tag; made from pMIgV or pHIgV plasmid
B2: the binding result in assay [6] is given as “no binding (tested: 10 µg/ml)”; in [7], “no binding (tested: 10 µg/ml)”; in assay [8], “no binding (tested: 10 µg/ml)”; in [9] it was “no binding (tested: 10 µg/ml)”; in assay [10], “no binding (tested: 10 µg/ml)”; in assay [11] it was “binds”. Further, the binding result in assay [12], in [13] and in assay [14] was “no binding (tested: 10 µg/ml)” throughout.
